Data taken from patent US20180327500A1 (SYMPHOGEN A S, published 2018).

Columns and labels:
Assay in all cases: flow cytometry on transfected HEK293 cells;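 also: antibodies applied at 50 µg/ml, binding called specific when fluorescence exceeds the mean signal on a negative control chicken or mouse MET construct plus four SD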
Mouse Blade 1-3 = target: T1, Mouse Blade 1-3
T1 construct: human/mouse chimera on transfected HEK293 cells; also called AA 25-233
Description: (§1) Cut-off values defined as the average fluorescence signal of all antibodies tested at 50 μg/ml to the negative control chicken or mouse MET construct+four standard deviations were employed to discriminate background binding from specific binding for the domain exchange or blade exchange constructs.
T1 MET ECD-SV5-GPI fusion: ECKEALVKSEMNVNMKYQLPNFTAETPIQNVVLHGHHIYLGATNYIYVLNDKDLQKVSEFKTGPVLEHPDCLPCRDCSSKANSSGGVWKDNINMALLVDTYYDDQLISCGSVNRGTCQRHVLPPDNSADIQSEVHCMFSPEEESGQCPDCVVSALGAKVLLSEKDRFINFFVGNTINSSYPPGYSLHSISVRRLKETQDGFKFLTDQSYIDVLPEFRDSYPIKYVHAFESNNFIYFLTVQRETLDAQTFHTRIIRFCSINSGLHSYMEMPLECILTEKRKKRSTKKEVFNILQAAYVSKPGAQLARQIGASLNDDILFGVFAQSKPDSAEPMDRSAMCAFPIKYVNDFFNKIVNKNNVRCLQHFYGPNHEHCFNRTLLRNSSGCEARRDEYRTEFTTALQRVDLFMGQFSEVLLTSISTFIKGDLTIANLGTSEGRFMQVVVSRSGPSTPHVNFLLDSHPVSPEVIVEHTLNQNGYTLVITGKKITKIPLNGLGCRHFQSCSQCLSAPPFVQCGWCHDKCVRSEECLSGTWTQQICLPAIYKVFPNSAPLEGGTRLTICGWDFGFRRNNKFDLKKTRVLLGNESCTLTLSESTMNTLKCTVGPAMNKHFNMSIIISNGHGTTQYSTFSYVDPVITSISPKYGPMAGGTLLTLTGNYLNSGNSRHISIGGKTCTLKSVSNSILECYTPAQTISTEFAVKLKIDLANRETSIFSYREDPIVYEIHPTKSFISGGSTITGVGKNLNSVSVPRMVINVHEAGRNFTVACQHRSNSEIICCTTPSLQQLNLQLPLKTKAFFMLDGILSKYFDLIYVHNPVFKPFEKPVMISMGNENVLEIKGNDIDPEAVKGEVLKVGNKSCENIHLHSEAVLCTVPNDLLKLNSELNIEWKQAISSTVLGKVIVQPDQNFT

Mouse Blade 1-5 = target: T2, Mouse Blade 1-5
T2 construct: human/mouse chimera on transfected HEK293 cells; also called AA 25-430
Description: as §1
T2 MET ECD-SV5-GPI fusion: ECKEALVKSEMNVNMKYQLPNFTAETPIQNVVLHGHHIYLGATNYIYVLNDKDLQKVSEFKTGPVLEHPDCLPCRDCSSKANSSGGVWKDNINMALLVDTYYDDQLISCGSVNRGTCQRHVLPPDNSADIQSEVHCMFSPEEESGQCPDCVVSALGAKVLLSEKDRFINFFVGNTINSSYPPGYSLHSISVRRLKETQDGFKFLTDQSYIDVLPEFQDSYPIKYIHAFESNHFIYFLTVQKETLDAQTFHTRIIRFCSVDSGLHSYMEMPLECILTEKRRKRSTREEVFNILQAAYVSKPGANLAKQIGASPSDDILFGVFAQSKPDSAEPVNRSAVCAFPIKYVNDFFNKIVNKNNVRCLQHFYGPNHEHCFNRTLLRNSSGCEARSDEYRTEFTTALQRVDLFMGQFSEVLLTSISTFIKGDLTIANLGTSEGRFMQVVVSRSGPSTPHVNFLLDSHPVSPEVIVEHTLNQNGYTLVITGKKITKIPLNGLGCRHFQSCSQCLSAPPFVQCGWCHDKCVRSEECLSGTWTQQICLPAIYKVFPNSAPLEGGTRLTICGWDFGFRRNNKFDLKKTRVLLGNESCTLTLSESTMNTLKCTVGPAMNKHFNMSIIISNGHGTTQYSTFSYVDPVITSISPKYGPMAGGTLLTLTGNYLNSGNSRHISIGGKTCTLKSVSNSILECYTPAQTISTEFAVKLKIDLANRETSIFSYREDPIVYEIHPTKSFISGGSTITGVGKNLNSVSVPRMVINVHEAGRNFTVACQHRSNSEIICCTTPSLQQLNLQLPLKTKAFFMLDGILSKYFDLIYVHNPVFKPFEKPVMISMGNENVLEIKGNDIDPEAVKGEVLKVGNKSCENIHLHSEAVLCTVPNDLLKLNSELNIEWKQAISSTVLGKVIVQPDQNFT

LS2 = target: T3, LS2
T3 construct: human/mouse chimera on transfected HEK293 cells
Description: as §1
T3 MET ECD-SV5-GPI fusion: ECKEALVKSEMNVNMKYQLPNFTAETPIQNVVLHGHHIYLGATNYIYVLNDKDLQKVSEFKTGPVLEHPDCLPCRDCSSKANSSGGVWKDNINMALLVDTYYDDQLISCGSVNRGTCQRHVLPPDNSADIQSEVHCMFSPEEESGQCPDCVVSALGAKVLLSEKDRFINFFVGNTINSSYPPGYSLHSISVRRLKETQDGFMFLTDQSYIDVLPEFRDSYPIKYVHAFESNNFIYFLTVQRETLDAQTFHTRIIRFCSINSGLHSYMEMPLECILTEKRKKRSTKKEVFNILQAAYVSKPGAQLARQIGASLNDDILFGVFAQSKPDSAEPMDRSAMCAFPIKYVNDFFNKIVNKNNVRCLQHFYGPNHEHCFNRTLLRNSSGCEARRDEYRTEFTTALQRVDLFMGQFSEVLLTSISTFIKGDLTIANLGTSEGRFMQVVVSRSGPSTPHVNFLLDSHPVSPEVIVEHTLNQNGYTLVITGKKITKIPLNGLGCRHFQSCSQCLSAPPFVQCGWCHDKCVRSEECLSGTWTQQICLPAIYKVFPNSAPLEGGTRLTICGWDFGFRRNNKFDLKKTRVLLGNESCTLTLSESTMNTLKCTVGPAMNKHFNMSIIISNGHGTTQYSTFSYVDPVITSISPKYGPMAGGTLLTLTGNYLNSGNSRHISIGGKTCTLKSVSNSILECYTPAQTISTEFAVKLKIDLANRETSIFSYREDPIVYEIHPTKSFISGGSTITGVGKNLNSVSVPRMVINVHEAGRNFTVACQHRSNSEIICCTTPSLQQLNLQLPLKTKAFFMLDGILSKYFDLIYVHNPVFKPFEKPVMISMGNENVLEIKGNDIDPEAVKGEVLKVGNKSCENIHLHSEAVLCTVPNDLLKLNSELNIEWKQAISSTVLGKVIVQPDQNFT

Measured: binding result

B1: humanized antibody 9006 (antibody, human IgG1, kappa, V domains shown)
VH: QVQLVQSGSELKKPGASVKVSCKASGYTFTNFRMNWVKQAPGQGLKWMGWINTYTGEPTYVDDLKGRFVFSLDTSVSTAYLQISSLKAEDTAVYYCARKGIARAMDYWGQGTTVTVSS
VL: DIVMTQSPDSLAVSLGERATINCKSSQSLLDSGNQKNYLAWYQQKPGQPPKLLIFGASTRESGVPDRFSGSGSGTDFTLTISSLQAEDVAVYYCQNDHSYPYTFGQGTKLEIKR
notes: also called Hu9006; hu9006
no binding (tested: 50 µg/ml): Mouse Blade 1-3 | Mouse Blade 1-5 | LS2

B2: humanized antibody 9338 (antibody, human IgG1, kappa, V domains shown)
VH: QVQLVQSGAEVKKPGSSVKVSCKASGYTFTSYWMHWVRQAPGQGLEWMGYINPSSGHIENNQKFKDRVTITADKSTSTAYMELSSLRSEDTAVYYCARGRFAYWGQGTLVTVSS
VL: EIVLTQSPATLSLSPGERATLSCSASSSVSSGYLYWYQQKPGQAPRLLIYSTSNLASGIPARFSGSGSGTDFTLTISSLEPEDFAVYYCHQWSSYPFTFGSGTKLEIKR
notes: also called Hu9338; hu9338
no binding (tested: 50 µg/ml): Mouse Blade 1-3 | Mouse Blade 1-5 | LS2
